Measurements from patent US7524668B1, “Crystal of human beta secretase having monoclinic space group symmetry C2 and methods for crystallization thereof” (Elan Pharmaceuticals, Inc., priority 2001, dated 2009).

Molecular target: T1, beta secretase (Homo sapiens, UniProt P56817)
T1 construct: a homogeneous preparation of beta secretase with V^40 as an N-terminus could be made; made in house; host or cells: CHO-K1 cells; secreted, purified, then cleaved in vitro with HIV-1 protease
Assay: beta secretase activity assay by HPLC analysis of the products
Format: biochemical
Conditions: CHO cell derived human beta secretase cleaved at F39-V40 by HIV-1 protease, compared with unprocessed/non-treated enzyme
Experimental: Cleavage of Beta Secretase by HIV Protease. It was reasoned that a homogeneous preparation of beta secretase with V^40 as an N-terminus could be made if conditions could be found to bring the cleavage to completion. The optimal conditions for cleavage were determined by examining the N-terminal sequence of beta secretase after incubation with HIV-1 protease in various conditions. These included a pH range of 4-7, urea concentrations of 0.5-3.0 M, and time increments of 15 minutes, up to 2 hours incubation at 37° C. […] The processed enzyme was separated from the other components of the reaction mixture by using an affinity column based on the synthetic peptide shown in FIG. 2 and dialysis.
Purified HIV-1 protease treated (and non-treated) beta secretase were assayed for activity by HPLC analysis of the products.

B1: HIV-1 protease treated beta secretase: CHO cell expressed recombinant human beta secretase proteolytically cleaved with HIV protease at the F39-V40 bond (SEQ ID NO:5) (protein)
chain: VEMVDNLRGKSGQGYYVEMTVGSPPQTLNILVDTGSSNFAVGAAPHPFLHRYYQRQLSSTYRDLRKGVYVPYTQGKWEGELGTDLVSIPHGPNVTVRANIAAITESDKFFINGSNWEGILGLAYAEIARPDDSLEPFFDSLVKQTHVPNLFSLQLCGAGFPLNQSEVLASVGGSMIIGGIDHSLYTGSLWYTPIRREWYYEVIIVRVEINGQDLKMDCKEYNYDKSIVDSGTTNLRLPKKVFEAAVKSIKAASSTEKFPDGFWLGEQLVCWQAGTTPWNIFPVISLYLMGEVTNQSFRITILPQQYLRPVEDVATSQDDCYKFAISQSSTGTVMGAVIMEGFYVVFDRARKRIGFAVSACHVHDEFRTAAVEGPFVTLDMEDCGYNIPQTDESHHHHHH
more enzymatic activity than non-treated beta secretase: 10-20%
